Assay results reported in US20240376199A1 (University of Texas, published 2024).
Residue numbers refer to the chain shown, from its start.

B1: TREM2-Ab26Rb (antibody, V domains shown)
VH: QKQLVESGGDLVKPEGSLTLTCTASGFSFSYSYYMCWVRQAPGKGLEWIGCIYGGGSGSSYYASWAKGRFTISKTSSTTVTLQVTSLTAADTATYFCARIDDAYATVMWGPGTLVTVSS
VL: DVVMTQTASPVSGAVGGTVTIKCQASEDIYSSLAWYQQKPGQPPKLLIYQASKLASGVPPRFSGSGSGTEYTLTISDLECADAATYYCQNYYYVRGADYWAFGGGTEVVVE
notes: Rabbit-derived mAb; also called 26 H / 26 k
B2: TREM2-Ab1Rb (antibody, V domains shown)
VH: QEQLVESGGGLVTPGGTLTLTCTASGIDFSNYGISWVRQAPGKGLEWIGYIYPDYGATAYANWVNGRFTVSLDNAQNTVTLNMTSLTAADTATYFCARSTGWGDFNLWGPGTLVTVSS
VL: DVVMTQTPASVSEPVGGTVTIKCQASQNIGSNLAWYQQKPGQPPNLLIYGASNLASGVSSRFKGSSSGTEYTLTISDLECADAATYYCQCTYYGSSYVAFGGGTEVVVK
notes: Rabbit-derived mAb; also called 1 H / 1 k
B3: TREM2-Ab8Hu (antibody, V domains shown)
VH: QVQLVESGGGLIQPGGSLRLSCAVSGVSVSNNYMNWVRQAPGKGLEWVSSMYSDATTHYADSVKGRFTISRDNSKNNMYLQMDSLRAEDTAVYYCARESVAGTLDFWGQGTTVSVSS
VL: SYELTQPPSASGTPGQRVTISCSGSSSNIGTYPVNWYQKLPGTAPKLLIYTNNQRPSGVPDRFSGSKSGTSASLTISGLQSEDEADYYCATWGDSLNAVVFGGGTKVTVL
notes: also called H8-Hu / 8L-Hu
B4: TREM2-Ab16Rb (antibody, V domains shown)
VH: QEQLVESGGGLVKPGASLTLTCTASGFSFSDTAYICWVRQAPGKGLEWVACIAFGDGRTYLASWAKGRFTISKTSSTTVTLQMTSLPAADTATYFCASNFTLWGPGTLVTVSS
VL: DVVMTQTPASVSEPVGGTVTINCQAIQSIGNNFVWYQQKPGQPPKLLIYKASIRASGVSSRFRGSGSGTDFTLTISDLECDDTGTYYCQCTYASSATFGGGTEVVVK
notes: Rabbit-derived mAb; also called 16 H / 16 k
B5: TREM2-Ab12Rb (antibody, V domains shown)
VH: QSVEESGGDLVKSGASLTLTCTASGFSFSSYYFMCWVRQAPGRGLEWIACIYAGTSANTYYASWAKGRFTISKTSSTTVTLQMTSLTAADTATYFCARDRGYYTYADAGYAYATDGFDLWGPGTLVTVSS
VL: ALVMTQTPASVEAAVGGTVTIKCQASQNIYSNLAWYQQKPGQPPKRLIYKASTLPSGVPSRFKGSGSGTQFTLTISDLECADAATYYCQSNYYSSSSNYGPNAFGGGTEVVVK
notes: Rabbit-derived mAb; also called 12 H / 12 k
B6: TREM2-Ab2Rb (antibody, V domains shown)
VH: QKQLVESGGGLVKPEGSLTLTCKVSGIDFSSAGISWVRQAPGKGLEWIAYIYPDYGVTDYANWVNGRFTISLDNAQNTVFLQMTSLTAADTATYFCARMDAADAGYGYDLWGPGTLVTVSS
VL: AAVLTQTTSPVSGAVGGTVTIKCQASQSVGSNLAWYQQKPGQPPKILIGGASKLASGVPSRFSGSGSGTEFTLTISDLECADAGTYYCHSYYYSSTSADAFGGGTKVVVE
notes: Rabbit-derived mAb; also called 2 H / 2 k
B7: TREM2-Ab6Rb (antibody, V domains shown)
VH: B6 VH
VL: B6 VL with A1D, A2V, L4M, S31T, L73F, K106E, E110K
notes: also called 2 H / 6 k
B8: TREM2-Ab2Hu (antibody, V domains shown)
VH: QVQLVQSGAEVKKPGASVKVSCKASGYTFTSYYMHWVRQAPGQGLEWMGIINPSGGSTSYAQKFQGRVTMTRDTSTSTVYMELSSLRSEDTAVYYCARDRPGRSSIAAAGPKRGHYGMDVWGQGTTVSVSS
VL: QSALNQPASVSGSPGQSITISCTGTSSDVGGYNYVSWYQQHPGKAPKLMIYEVSNRPSGVSNRFSGSKSGNTASLTISGLQAEDEADYYCSSYTSSRTLVFGTGTKVTVL
notes: also called H2-Hu / 2L-Hu
B9: TREM2-Ab19Hu (antibody, V domains shown)
VH: EVQLVQSGAEVKKPGASVKVSCKASGYTFTSYYMHWVRQAPGQGLEWMGIINPSGGSTSYAQKFQGRVTMTRDTSTSTVYMELSSLRSEDTAVYYCARSLSSGSYYDYWGQGTLVSVSS
VL: B8 VL with N5T, E52D, S54T, N55K, I77V, T103G
notes: also called H19-Hu / 19L-Hu
B10: TREM2-Ab22Rb (antibody, V domains shown)
VH: QSVEESGGDLVKPGASLTLTCTASGFSFSSTAMCWVRQAPGKGLEWIACIGFSSGIINYANSVKGRFTISKTSSTTVSLQMNSLTAADTATYFCARFFNLWGPGTLVTVSS
VL: DPVLTQTPSSVSAAVGGTVTISCQATETVYSNDRLAWYQQKPGQPPKLLIYRISTLESGVPSRFKGSGSGTQFTLTISGVQCDDAATYYCAGGYNGNIWAFGGGTEVVVK
notes: Rabbit-derived mAb; also called 22 H / 22 k
B11: biotinylated TREM2 protein (Sino Biological) (receptor)
chain: LNTTVLQGMAGQSLRVSCTYDALKHWGRRKAWCRQLGEEGPCQRVVSTHGVWLLAFLKKRNGSTVIADDTLAGTVTITLKNLQAGDAGLYQCQSLRGREAEVLQKVLVEVLEDPLDDQDAGDLWVPEESSSFEGAQVEHSTSRNQETSFPPTS
modifications: Biotinylated; sites not stated.
notes: not shown: biotin label
B12: Ab18 IgG (antibody, V domains shown)
VH: QVQLQESGPGLVKPSETLSLTCTVSGGSISSYYWSWIRQPPGKGLEWIGSIYYSGSTNYNPSLKSRVTISVDTSKNQFSLKLSSVTAADTAVYYCARDGGGEYPSGTPFDIWGQGTMVTVSS
VL: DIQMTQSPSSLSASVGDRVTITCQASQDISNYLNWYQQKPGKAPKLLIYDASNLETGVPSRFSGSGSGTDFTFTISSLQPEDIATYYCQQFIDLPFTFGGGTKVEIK

target: TREM2 (antigen of the BLI kinetics and binning of Tables 2 and 3); test: BLI, Octet Red96

Kd | koff | kon | Binder
27.5 nM | 0.00487 s⁻¹ | 177000 M⁻¹ s⁻¹ | B1
1.42 nM | 0.000727 s⁻¹ | 513000 M⁻¹ s⁻¹ | B2
8.18 nM | 0.00499 s⁻¹ | 609000 M⁻¹ s⁻¹ | B3
0.32 nM | 7.84e-05 s⁻¹ | 245000 M⁻¹ s⁻¹ | B4
71.8 nM | 0.00685 s⁻¹ | 95500 M⁻¹ s⁻¹ | B5
1.2 nM | 0.000451 s⁻¹ | 376000 M⁻¹ s⁻¹ | B6
1.97 nM | 0.000909 s⁻¹ | 461000 M⁻¹ s⁻¹ | B7
18.1 nM | 0.00647 s⁻¹ | 359000 M⁻¹ s⁻¹ | B8
18.9 nM | 0.00986 s⁻¹ | 522000 M⁻¹ s⁻¹ | B9
3.1 nM | 0.00107 s⁻¹ | 346000 M⁻¹ s⁻¹ | B10

target: T1, muTfR-His (Sino Biological) (mouse, UniProt Q62351 89-763); test: sandwich BLI, biotinylated TREM2 on streptavidin sensor, antibody step omitted
T1 construct: extracellular domain; Bought protein; also called TfR ECD; mouse transferrin receptor; not shown: His tag
Procedure: Streptavidin sensors (Fortebio) were used to capture biotinylated TREM2 proteins (Sino Biological). During all incubation steps, samples were kept at room temperature with 1000 rpm shaking. In the TREM2 loading step, 100 nM biotinylated TREM2 proteins were incubated with the sensors for the designated time. In the bispecific antibody interaction steps, 200 nM antibodies were used. In the muTfR incubation step, 100 nM muTfR-His (Sino Biological) were used. Between incubations, the sensors were dipped into blank kinetic buffers to allow the free dissociation of proteins.

T1 sequence (Q62351 89-763): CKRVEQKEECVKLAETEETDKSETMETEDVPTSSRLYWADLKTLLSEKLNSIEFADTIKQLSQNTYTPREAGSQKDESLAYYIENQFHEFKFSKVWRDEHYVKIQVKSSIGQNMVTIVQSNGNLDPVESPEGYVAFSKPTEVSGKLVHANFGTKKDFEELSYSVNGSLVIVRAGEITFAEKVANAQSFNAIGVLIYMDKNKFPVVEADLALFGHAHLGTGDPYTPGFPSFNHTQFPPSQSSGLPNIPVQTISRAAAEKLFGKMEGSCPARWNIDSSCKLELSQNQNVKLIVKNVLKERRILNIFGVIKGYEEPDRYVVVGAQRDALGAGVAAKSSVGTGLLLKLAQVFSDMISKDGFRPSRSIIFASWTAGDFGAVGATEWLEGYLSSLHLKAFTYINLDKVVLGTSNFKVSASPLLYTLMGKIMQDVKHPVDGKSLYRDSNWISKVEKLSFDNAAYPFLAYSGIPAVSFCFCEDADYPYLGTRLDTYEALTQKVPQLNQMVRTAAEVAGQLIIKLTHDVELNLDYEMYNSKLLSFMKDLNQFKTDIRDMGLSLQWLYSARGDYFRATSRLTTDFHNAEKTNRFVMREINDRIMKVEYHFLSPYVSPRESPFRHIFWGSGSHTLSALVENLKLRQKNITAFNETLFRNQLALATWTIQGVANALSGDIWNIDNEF

binding result | Binder
no binding (tested: 100 nM) | B11

target: TREM2-DAP12 reporter construct on 2B4 NFAT-EGFP reporter cells (mouse; human, UniProt Q99NH8 19-171; O43914 28-113); test: cell-based or functional assay

EC50 of activation of TREM2-DAP12 NFAT-EGFP reporter cells | Binder
79.4 nM | B12
